For 1 substance, EC50 of potentiation of currents induced by pH 4 results are on record in US20030219858A1.

This experiment concerns the target human heteromultimeric ASIC-2S.2 channel (human ASIC2A + human ASIC3) (human) (UniProt Q16515). Put plainly: cell-based or functional assay.

Sequence of human heteromultimeric ASIC-2S.2 channel (human ASIC2A + human ASIC3) (human) (Q16515 whole entry, chain 1 of 2): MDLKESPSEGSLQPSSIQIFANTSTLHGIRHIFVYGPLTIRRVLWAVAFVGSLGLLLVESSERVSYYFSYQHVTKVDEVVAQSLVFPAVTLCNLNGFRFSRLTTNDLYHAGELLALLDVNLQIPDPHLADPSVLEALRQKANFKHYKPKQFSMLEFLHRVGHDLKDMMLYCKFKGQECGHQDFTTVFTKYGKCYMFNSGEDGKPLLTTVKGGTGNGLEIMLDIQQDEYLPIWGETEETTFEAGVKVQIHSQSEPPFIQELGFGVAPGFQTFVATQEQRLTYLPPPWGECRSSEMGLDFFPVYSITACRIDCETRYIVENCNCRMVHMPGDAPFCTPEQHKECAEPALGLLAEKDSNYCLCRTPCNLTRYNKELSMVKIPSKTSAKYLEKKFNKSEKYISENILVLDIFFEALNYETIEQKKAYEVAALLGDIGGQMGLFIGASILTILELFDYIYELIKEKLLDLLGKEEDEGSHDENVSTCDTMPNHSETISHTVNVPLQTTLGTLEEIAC
Sequence of human heteromultimeric ASIC-2S.2 channel (human ASIC2A + human ASIC3) (human) (chain, as listed by the source, chain 2 of 2): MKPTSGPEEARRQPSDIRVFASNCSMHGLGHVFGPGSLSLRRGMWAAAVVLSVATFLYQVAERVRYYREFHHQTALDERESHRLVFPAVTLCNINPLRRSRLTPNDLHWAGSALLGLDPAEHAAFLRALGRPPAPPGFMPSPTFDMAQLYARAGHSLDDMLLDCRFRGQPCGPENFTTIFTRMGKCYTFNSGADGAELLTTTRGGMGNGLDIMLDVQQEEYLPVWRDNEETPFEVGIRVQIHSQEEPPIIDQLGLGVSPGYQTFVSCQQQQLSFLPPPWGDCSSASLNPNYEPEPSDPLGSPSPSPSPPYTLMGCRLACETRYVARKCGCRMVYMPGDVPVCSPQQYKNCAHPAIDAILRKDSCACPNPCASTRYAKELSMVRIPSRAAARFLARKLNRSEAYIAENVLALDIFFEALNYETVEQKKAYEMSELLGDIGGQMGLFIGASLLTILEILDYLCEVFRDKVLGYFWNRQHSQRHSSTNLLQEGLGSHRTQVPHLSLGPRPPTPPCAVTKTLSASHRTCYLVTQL

In the case of “NPFF (from UniProt O15130 69-76) (peptide)”, the EC50 of potentiation of currents induced by pH 4 was determined as 2 µM.
